According to paper PMC3734082:

Biological target: clathrin triskelia (clathrin heavy chain, CHC) purified from rat liver (UniProt P11442)
Assay: GST pull-down, CHC
Conditions: sites S558

Row | binding against the reference (reference: wild type treated with Aurora A) | binding against the reference (reference: wild-type CID treated with Aurora A) | Substance
1 | weaker |  | TACC3 (from UniProt Q9Y6A5) S558A treated with Aurora A
2 |  | weaker | TACC3 clathrin interaction domain (CID), 522-577 (from UniProt Q9Y6A5) S558A CID treated with Aurora A
